Tests used:
Experiment in all cases: cell-based or functional assay
[1] = target: HIV-1 JR-CSF Env E321aA (HIV-1 isolate JR-CSF) (UniProt P20871)
[2] = target: Env of the clade AG HIV-1 pseudoviruses of the cross-clade 162-pseudovirus panel (n = 10)
[3] = target: HIV-1 JR-CSF Env N332A (HIV-1 isolate JR-CSF) (UniProt P20871)
[4] = target: HIV-1 JR-CSF Env N386A (HIV-1 isolate JR-CSF) (UniProt P20871)
[5] = target: HIV-1 JR-CSF Env I414A (HIV-1 (isolate JR-CSF)) (UniProt P20871)
[6] = target: Env of the clade D HIV-1 pseudoviruses of the cross-clade 162-pseudovirus panel (n = 25)
[7] = target: HIV-1 JR-CSF Env D325A (HIV-1 isolate JR-CSF) (UniProt P20871)
[8] = target: HIV-1 JR-CSF Env I307A (HIV-1 JR-CSF) (UniProt P20871)
[9] = target: HIV-1 JR-CSF Env T303A (HIV-1 JR-CSF) (UniProt P20871)
[10] = target: HIV-1 JR-CSF Env K305A (HIV-1 JR-CSF) (UniProt P20871)
[11] = target: HIV-1 JR-CSF Env N411A (HIV-1 (isolate JR-CSF)) (UniProt P20871)
[12] = target: HIV-1 JR-CSF Env D417A (HIV-1 (isolate JR-CSF)) (UniProt P20871)
[13] = target: HIV-1 JR-CSF Env I326A (HIV-1 isolate JR-CSF) (UniProt P20871)
[14] = target: HIV-1 JR-CSF Env T388A (HIV-1 (isolate JR-CSF)) (UniProt P20871)
[15] = target: HIV-1 JR-CSF Env T394A (HIV-1 (isolate JR-CSF)) (UniProt P20871)
[16] = target: Env of the clade A HIV-1 pseudoviruses of the cross-clade 162-pseudovirus panel (n = 26)
[17] = target: Env of the clade G HIV-1 pseudoviruses of the cross-clade 162-pseudovirus panel (n = 15)
[18] = target: HIV-1 JR-CSF Env K343A (HIV-1 isolate JR-CSF) (UniProt P20871)
[19] = target: HIV-1 JR-CSF Env N301A (HIV-1 JR-CSF) (UniProt P20871)
[20] = target: HIV-1 Env of isolate 92TH021 (HIV-1)
[21] = target: HIV-1 JR-CSF Env K421A (HIV-1 (isolate JR-CSF)) (UniProt P20871)
[22] = target: HIV-1 JR-CSF Env S334A (HIV-1 isolate JR-CSF) (UniProt P20871)
[23] = target: HIV-1 JR-CSF Env V292A (HIV-1 JR-CSF) (UniProt P20871)
[24] = target: HIV-1 JR-CSF Env Q422A (HIV-1 (isolate JR-CSF)) (UniProt P20871)
[25] = target: HIV-1 JR-CSF Env R327A (HIV-1 isolate JR-CSF) (UniProt P20871)
[26] = target: HIV-1 JR-CSF Env N241A (HIV-1 JR-CSF) (UniProt P20871)
[27] = target: HIV-1 JR-CSF Env R315A (HIV-1 isolate JR-CSF) (UniProt P20871)
[28] = target: HIV-1 JR-CSF Env T319A (HIV-1 isolate JR-CSF) (UniProt P20871)
[29] = target: HIV-1 JR-CSF Env N396A (HIV-1 (isolate JR-CSF)) (UniProt P20871)
[30] = target: HIV-1 JR-CSF Env N339A (HIV-1 isolate JR-CSF) (UniProt P20871)
[31] = target: HIV-1 JR-CSF Env S393A (HIV-1 (isolate JR-CSF)) (UniProt P20871)
[32] = target: HIV-1 Env of isolate JR-CSF (HIV-1) (UniProt P20871)
[33] = target: HIV-1 JR-CSF Env N276A (HIV-1 JR-CSF) (UniProt P20871)
[34] = target: HIV-1 JR-CSF Env N262A (HIV-1 JR-CSF) (UniProt P20871)
[35] = target: HIV-1 JR-CSF Env F317A (HIV-1 isolate JR-CSF) (UniProt P20871)
[36] = target: HIV-1 JR-CSF Env T320A (HIV-1 isolate JR-CSF) (UniProt P20871)
[37] = target: HIV-1 JR-CSF Env N295A (HIV-1 JR-CSF) (UniProt P20871)
[38] = target: HIV-1 JR-CSF Env T202A (HIV-1 JR-CSF) (UniProt P20871)
[39] = target: HIV-1 JR-CSF Env Q337A (HIV-1 isolate JR-CSF) (UniProt P20871)

B1: PGT-125 (antibody, V domains shown)
VH: QSQLQESGPRLVEASETLSLTCNVSGESTGACTYFWGWVRQAPGKGLEWIGSLSHCQSFWGSGWTFHNPSLKSRLTISLDTPKNQVFLKLTSLTAADTATYYCARFDGEVLVYNHWPKPAWVDLWGRGIPVTVSS
VL: QSALTQPPSASGSPGQSITISCNGTATNFVSWYQQFPDKAPKLIIFGVDKRPPGVPDRFSGSRSGTTASLTVSRLQTDDEAVYYCGSLVGNWDVIFGGGTTLTVL
[1]
  Fold IC50 increase relative to wild-type: 1 fold
[2]
  Median IC50 against viruses neutralized with an IC50 <50 µg/ml: 0.01 µg/mL
[3]
  Fold IC50 increase relative to wild-type: 2 fold
[4]
  Fold IC50 increase relative to wild-type: 0.8 fold
[5]
  Fold IC50 increase relative to wild-type: 0.3 fold
[6]
  Median IC50 against viruses neutralized with an IC50 <50 µg/ml: 0.09 µg/mL
[7]
  Fold IC50 increase relative to wild-type: 0.4 fold
[8]
  Fold IC50 increase relative to wild-type: 5 fold
[9]
  Fold IC50 increase relative to wild-type: > 250 fold
[10]
  Fold IC50 increase relative to wild-type: 1.9 fold
[11]
  Fold IC50 increase relative to wild-type: 0.5 fold
[12]
  Fold IC50 increase relative to wild-type: 0.5 fold
[13]
  Fold IC50 increase relative to wild-type: 0.9 fold
[14]
  Fold IC50 increase relative to wild-type: 0.6 fold
[15]
  Fold IC50 increase relative to wild-type: 0.6 fold
[16]
  Median IC50 against viruses neutralized with an IC50 <50 µg/ml: 0.01 µg/mL
[17]
  Median IC50 against viruses neutralized with an IC50 <50 µg/ml: 0.02 µg/mL
[18]
  Fold IC50 increase relative to wild-type: 0.7 fold
[19]
  Fold IC50 increase relative to wild-type: 213 fold
[20]
  IC50 (µg/mL), pseudovirus neutralization: 0.006 µg/mL
  Polyclonal Transfectant Neutralization Index (well 5123 A6): 50.6
  Primary Neutralization Index (B cell culture well 5123 A6): 133
[21]
  Fold IC50 increase relative to wild-type: 1.2 fold
[22]
  Fold IC50 increase relative to wild-type: 0.8 fold
[23]
  Fold IC50 increase relative to wild-type: 3.3 fold
[24]
  Fold IC50 increase relative to wild-type: 1.2 fold
[25]
  Fold IC50 increase relative to wild-type: 2.1 fold
[26]
  Fold IC50 increase relative to wild-type: 0.5 fold
[27]
  Fold IC50 increase relative to wild-type: 0.9 fold
[28]
  Fold IC50 increase relative to wild-type: 1.1 fold
[29]
  Fold IC50 increase relative to wild-type: 1.6 fold
[30]
  Fold IC50 increase relative to wild-type: 0.9 fold
[31]
  Fold IC50 increase relative to wild-type: 0.5 fold
[32]
  Polyclonal Transfectant Neutralization Index (well 5123 A6): 119
  Primary Neutralization Index (B cell culture well 5123 A6): 1730
[33]
  Fold IC50 increase relative to wild-type: 0.9 fold
[34]
  Fold IC50 increase relative to wild-type: 0.9 fold
[35]
  Fold IC50 increase relative to wild-type: 1.8 fold
[36]
  Fold IC50 increase relative to wild-type: 0.8 fold
[37]
  Fold IC50 increase relative to wild-type: 0.8 fold
[38]
  Fold IC50 increase relative to wild-type: 0.8 fold
[39]
  Fold IC50 increase relative to wild-type: 0.8 fold

B2: PGT-123 (antibody, V domains shown)
VH: QLHLQESGPGLVKPPETLSLTCSVSGASINDAYWSWIRQSPGKRPEWVGYVHHSGDTNYNPSLKRRVTFSLDTAKNEVSLKLVDLTAADSATYFCARALHGKRIYGIVALGELFTYFYMDVWGKGTAVTVSS
VL: SSMSVSPGETAKISCGKESIGSRAVQWYQQKPGQPPSLIIYNNQDRPAGVPERFSASPDFRPGTTATLTITNVDAEDEADYYCHIYDARGGTNWVFDRGTTLTVL
[1]
  Fold IC50 increase relative to wild-type: 0.6 fold
[2]
  Median IC50 against viruses neutralized with an IC50 <50 µg/ml: 0.61 µg/mL
[3]
  Fold IC50 increase relative to wild-type: > 200 fold
[4]
  Fold IC50 increase relative to wild-type: 1.4 fold
[5]
  Fold IC50 increase relative to wild-type: 0.3 fold
[6]
  Median IC50 against viruses neutralized with an IC50 <50 µg/ml: 0.02 µg/mL
[7]
  Fold IC50 increase relative to wild-type: 64 fold
[8]
  Fold IC50 increase relative to wild-type: 5.9 fold
[9]
  Fold IC50 increase relative to wild-type: 1.1 fold
[10]
  Fold IC50 increase relative to wild-type: 1.9 fold
[11]
  Fold IC50 increase relative to wild-type: 0.5 fold
[12]
  Fold IC50 increase relative to wild-type: 0.7 fold
[13]
  Fold IC50 increase relative to wild-type: 0.4 fold
[14]
  Fold IC50 increase relative to wild-type: 0.2 fold
[15]
  Fold IC50 increase relative to wild-type: 0.4 fold
[16]
  Median IC50 against viruses neutralized with an IC50 <50 µg/ml: 0.02 µg/mL
[17]
  Median IC50 against viruses neutralized with an IC50 <50 µg/ml: 0.04 µg/mL
[18]
  Fold IC50 increase relative to wild-type: 0.3 fold
[19]
  Fold IC50 increase relative to wild-type: 1 fold
[20]
  IC50 (µg/mL), pseudovirus neutralization: > 50 µg/mL
[21]
  Fold IC50 increase relative to wild-type: 0.9 fold
[22]
  Fold IC50 increase relative to wild-type: > 50 fold
[23]
  Fold IC50 increase relative to wild-type: 1.7 fold
[24]
  Fold IC50 increase relative to wild-type: 0.8 fold
[25]
  Fold IC50 increase relative to wild-type: 1.7 fold
[26]
  Fold IC50 increase relative to wild-type: 0.8 fold
[27]
  Fold IC50 increase relative to wild-type: 0.7 fold
[28]
  Fold IC50 increase relative to wild-type: 0.4 fold
[29]
  Fold IC50 increase relative to wild-type: 1.2 fold
[30]
  Fold IC50 increase relative to wild-type: 0.8 fold
[31]
  Fold IC50 increase relative to wild-type: 0.6 fold
[32]
  Primary Neutralization Index (B cell culture well 4858 P8): 1.6
[33]
  Fold IC50 increase relative to wild-type: 1.1 fold
[34]
  Fold IC50 increase relative to wild-type: 0.5 fold
[35]
  Fold IC50 increase relative to wild-type: 3.1 fold
[36]
  Fold IC50 increase relative to wild-type: 0.7 fold
[37]
  Fold IC50 increase relative to wild-type: 1.2 fold
[38]
  Fold IC50 increase relative to wild-type: 1.2 fold
[39]
  Fold IC50 increase relative to wild-type: 0.5 fold

— patent publication US20200024330A1
